# Experimental data published in patent publication US20210000909A1.
# B1: chimeric peptide YE-NA-1 (peptide)
# peptide: YGRKKRRQRRRYEKLSSIESDV
# modifications: not checked
# Biological target: PDZ1/2 domain, P78352
# Sequence (P78352 61-249 limits assumed): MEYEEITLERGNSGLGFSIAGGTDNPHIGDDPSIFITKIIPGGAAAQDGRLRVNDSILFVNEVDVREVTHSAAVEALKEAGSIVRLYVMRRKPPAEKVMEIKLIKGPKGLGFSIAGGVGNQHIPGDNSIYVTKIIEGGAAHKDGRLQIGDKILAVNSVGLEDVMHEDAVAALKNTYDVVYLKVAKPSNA
binder,measurement,value
B1,Kd,54.4 nM
